Experimental data: the supplement of paper PMC10598134
± gives the standard deviation.

Assay: collision cross section of modified peptide (TIMS, N2, iRT-aligned); higher = larger / more extended gas-phase ion
In short: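 Values are averages of 1–3 technical replicates of the most abundant feature for each charge state. Collision cross section was obtained from the Mason-Schamp equation after 1/K0 calibration with three reference ions and run-wise alignment to the median iRT peptide deviation. Synthetic peptide pools (iRT standard spiked 1:40) were separated on a 120-min nanoflow C18 gradient at 60 °C, analysed on a timsTOF Pro/HT (dda-PASEF, nitrogen, ~2.4 mbar) and identified with MaxQuant.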

[1] = charge state: 2, modification: Methyl (R)
[2] = charge state: 3, modification: Methyl (R)
[3] = charge state: 2, modification: Malonyl
[4] = charge state: 2, modification: Glutarylation
[5] = charge state: 3, modification: Glutarylation
[6] = charge state: 2, modification: Dimethyl (K)
[7] = charge state: 3, modification: Dimethyl (K)
[8] = charge state: 3, modification: Hydroxyproline
[9] = charge state: 2, modification: Butyryl
[10] = charge state: 3, modification: Butyryl
[11] = charge state: 3, modification: GlyGly (K)
[12] = charge state: 2, modification: Methyl (K)
[13] = charge state: 3, modification: Methyl (K)
[14] = charge state: 2, modification: Citrullination (R)
[15] = charge state: 2, modification: hydroxyisobutyryl
[16] = charge state: 3, modification: hydroxyisobutyryl
[17] = charge state: 2, modification: Propionyl
[18] = charge state: 2, modification: Acetyl (K)
[19] = charge state: 2, modification: Phospho (Y)
[20] = charge state: 3, modification: Phospho (Y)
[21] = charge state: 2, modification: Crotonyl
[22] = charge state: 3, modification: Crotonyl
[23] = charge state: 2, modification: Succinyl
[24] = charge state: 2, modification: Formyl
[25] = charge state: 3, modification: Malonyl
[26] = charge state: 2, modification: Trimethyl (K)
[27] = charge state: 3, modification: Trimethyl (K)
[28] = charge state: 3, modification: HexNAc (ST)
[29] = charge state: 2, modification: GlyGly (K)

LLALSGPGGGRGR [_LLALSGPGGGR(Methyl (R))GR_]
collision cross section [1]: 387.94 ± 0.53 Å² | collision cross section [2]: 446.53 ± 3.2 Å²

VDIDAPDVSIEGPDAKLK [_VDIDAPDVSIEGPDAK(Malonyl)LK_]
collision cross section [3]: 466.92 ± 1.2 Å²

DVNAAIAAIKTK [_DVNAAIAAIK(Gluratylation)TK_]
collision cross section [4]: 410.15 ± 0.99 Å² | collision cross section [5]: 471.67 ± 2.5 Å²

ILDLKTGTVK [_ILDLK(Dimethyl (K))TGTVK_]
collision cross section [6]: 355.49 ± 0.51 Å²

ASDTSSETVFGKR [_ASDTSSETVFGK(Gluratylation)R_]
collision cross section [4]: 400.66 ± 0.51 Å² | collision cross section [5]: 483.77 ± 1.7 Å²

TTEETSKPK [_TTEETSK(Dimethyl (K))PK_]
collision cross section [6]: 338.18 ± 1.5 Å² | collision cross section [7]: 409.31 Å²

FGYVDFESAEDLEK [_FGY(Nitro (Y))VDFESAEDLEK_]
collision cross section (charge state: 2, modification: Nitro (Y)): 424.66 Å²

GPPGPPGRPGNSGIR [_GPPGPPGRP(Hydroxyproline)GNSGIR_]
collision cross section [8]: 429.49 ± 1.3 Å²

FSAYIKNSNPALNDNLEK [_FSAYIK(Butyryl)NSNPALNDNLEK_]
collision cross section [9]: 487.55 ± 1 Å² | collision cross section [10]: 548.32 ± 1.1 Å²

YEQEHAAIQDKLFQVAK [_YEQEHAAIQDK(GlyGly (K))LFQVAK_]
collision cross section [11]: 562.29 ± 1.2 Å²

IHVQSSSDSSDEPAEKR [_IHVQSSSDSSDEPAEK(Methyl (K))R_]
collision cross section [12]: 448.84 Å² | collision cross section [13]: 522.27 ± 1 Å²

VGEFSGANKEK [_VGEFSGANK(Gluratylation)EK_]
collision cross section [4]: 364.67 ± 0.089 Å²

TLDEILQEKK [_TLDEILQEK(Malonyl)K_]
collision cross section [3]: 380.87 ± 4.1 Å²

STNVTVAAARGIK [_STNVTVAAAR(Methyl (R))GIK_]
collision cross section [1]: 403.35 ± 0.97 Å² | collision cross section [2]: 483.31 ± 3.1 Å²

GGGDRGGFGPGK [_GGGDR(Citrullination (R))GGFGPGK_]
collision cross section [14]: 334.18 ± 0.75 Å²

FGTINIVHPKLGSYTK [_FGTINIVHPK(hydroxyisobutyryl)LGSYTK_]
collision cross section [15]: 477.53 ± 1.6 Å² | collision cross section [16]: 560.61 ± 2.1 Å²

VGLQVVAVKAPGFGDNR [_VGLQVVAVK(Dimethyl (K))APGFGDNR_]
collision cross section [6]: 465.4 ± 1.7 Å² | collision cross section [7]: 490.92 ± 1.2 Å²

VFSIISSEKELK [_VFSIISSEK(Gluratylation)ELK_]
collision cross section [4]: 415.44 ± 1.1 Å²

ASAISIKLGSSK [_ASAISIK(Dimethyl (K))LGSSK_]
collision cross section [6]: 373.07 ± 0.36 Å² | collision cross section [7]: 447.62 Å²

SLFFGGKGAPLQR [_SLFFGGK(Malonyl)GAPLQR_]
collision cross section [3]: 399.96 ± 0.61 Å²

IVSGKDYNVTANSK [_IVSGK(Propionyl)DYNVTANSK_]
collision cross section [17]: 411.4 ± 0.64 Å²

SSGPGGQNVNKVNSK [_SSGPGGQNVNK(Acetyl (K))VNSK_]
collision cross section [18]: 401.59 ± 1.4 Å² | collision cross section (charge state: 3, modification: Acetyl (K)): 440.11 ± 2.5 Å²

VNALKNLQVK [_VNALK(Methyl (K))NLQVK_]
collision cross section [12]: 371.4 ± 0.45 Å² | collision cross section [13]: 420.52 ± 3.9 Å²

HIGFVYHPTK [_HIGFVY(Phospho (Y))HPTK_]
collision cross section [19]: 384.4 ± 0.77 Å² | collision cross section [20]: 458.98 ± 1.8 Å²

GFALVGVGSEASSKK [_GFALVGVGSEASSK(Butyryl)K_]
collision cross section [9]: 447.9 ± 0.87 Å² | collision cross section [10]: 499.86 ± 2.6 Å²

LLFSNTAAQKLR [_LLFSNTAAQK(Crotonyl)LR_]
collision cross section [21]: 404.43 ± 0.55 Å² | collision cross section [22]: 483.58 ± 1.6 Å²

STGLELETPSLVPVKK [_STGLELETPSLVPVK(Succinyl)K_]
collision cross section [23]: 449.72 ± 9.5 Å² | collision cross section (charge state: 3, modification: Succinyl): 499.21 ± 23 Å²

DESFLGKLGGTLAR [_DESFLGK(Formyl)LGGTLAR_]
collision cross section [24]: 408.46 ± 1.1 Å²

LTEKELAEAASK [_LTEK(hydroxyisobutyryl)ELAEAASK_]
collision cross section [15]: 392.48 ± 2 Å² | collision cross section [16]: 455.87 ± 2.2 Å²

DYSAPVNFISAGLKK [_DYSAPVNFISAGLK(Malonyl)K_]
collision cross section [3]: 442.5 ± 1.7 Å² | collision cross section [25]: 530.16 Å²

DASTLQSQKAEGTGDAK [_DASTLQSQK(Dimethyl (K))AEGTGDAK_]
collision cross section [6]: 438.33 ± 1.3 Å² | collision cross section [7]: 482.19 ± 4.5 Å²

GLPGEPGPRGLLGPK [_GLP(Hydroxyproline)GEPGPRGLLGPK_]
collision cross section [8]: 506.02 ± 0.37 Å²

STGLELETPSLVPVKK [_STGLELETPSLVPVK(Trimethyl (K))K_]
collision cross section [26]: 461.73 ± 1.2 Å² | collision cross section [27]: 522.47 ± 0.88 Å²

LLIVSTTPYSEKDTK [_LLIVSTTPYSEK(Biotin)DTK_]
collision cross section (charge state: 2, modification: Biotin): 480.64 Å²

SPSDSGYSYETIGKTTK [_SPSDSGYSYETIGK(Malonyl)TTK_]
collision cross section [3]: 450.66 ± 0.58 Å² | collision cross section [25]: 526.41 Å²

LDEKENLSAK [_LDEK(Propionyl)ENLSAK_]
collision cross section [17]: 369.99 ± 0.94 Å²

IHVQSSSDSSDEPAEKR [_IHVQSSSDSSDEPAEK(Malonyl)R_]
collision cross section [3]: 452 ± 1.6 Å² | collision cross section [25]: 506.71 ± 1.6 Å²

ALLQAKASGK [_ALLQAK(Dimethyl (K))ASGK_]
collision cross section [6]: 351.53 ± 0.51 Å²

VLDSGAPIKIPVGPETLGR [_VLDSGAPIK(Crotonyl)IPVGPETLGR_]
collision cross section [21]: 470.51 ± 1.1 Å² | collision cross section [22]: 511.83 ± 1.6 Å²

PSVGSQSNQAGQGKR [_PSVGSQSNQAGQGK(Methyl (K))R_]
collision cross section [12]: 426.09 ± 2.3 Å² | collision cross section [13]: 471.73 ± 2.8 Å²

AQVLAGGRGK [_AQVLAGGR(Methyl (R))GK_]
collision cross section [1]: 352.61 ± 7.6 Å²

AAINQKLIETGER [_AAINQK(hydroxyisobutyryl)LIETGER_]
collision cross section [15]: 409.76 ± 0.32 Å² | collision cross section [16]: 478.62 Å²

VTLEVGKVIQQGR [_VTLEVGK(Dimethyl (K))VIQQGR_]
collision cross section [6]: 422.85 ± 1.4 Å² | collision cross section [7]: 464.75 ± 1.6 Å²

DKALPLEAEVAPVK [_DK(Malonyl)ALPLEAEVAPVK_]
collision cross section [3]: 414.83 ± 0.6 Å²

LDEKENLSAK [_LDEK(Trimethyl (K))ENLSAK_]
collision cross section [26]: 376.2 ± 0.61 Å² | collision cross section [27]: 441.92 ± 3.4 Å²

GAEKTEVAEPR [_GAEK(Succinyl)TEVAEPR_]
collision cross section [23]: 372.49 ± 0.4 Å²

IQTVPASHLQQGTASGSSK [_IQTVPASHLQQGTAS(HexNAc (ST))GSSK_]
collision cross section [28]: 510.18 ± 0.18 Å²

KFGVLSDNFK [_K(Acetyl (K))FGVLSDNFK_]
collision cross section [18]: 370.76 ± 0.46 Å²

PSIHGGSGGRGVSVSSAR [_PSIHGGSGGR(Citrullination (R))GVSVSSAR_]
collision cross section (charge state: 3, modification: Citrullination (R)): 486.3 ± 5 Å²

SGATAGAAGGRGK [_SGATAGAAGGR(Citrullination (R))GK_]
collision cross section [14]: 331.61 ± 0.28 Å²

IINEPTAAAIAYGLDKK [_IINEPTAAAIAYGLDK(Gluratylation)K_]
collision cross section [4]: 470.31 ± 1.8 Å² | collision cross section [5]: 565.52 ± 1.3 Å²

AAQASDLEKIHLDEK [_AAQASDLEK(Propionyl)IHLDEK_]
collision cross section (charge state: 3, modification: Propionyl): 496.94 Å²

LGVATVAKGVCGACK [_LGVATVAK(Succinyl)GVCGACK_]
collision cross section [23]: 417.57 ± 0.55 Å²

ITLSKHQNVQLPR [_ITLSK(GlyGly (K))HQNVQLPR_]
collision cross section [29]: 441.27 Å² | collision cross section [11]: 493.46 ± 2 Å²

IQQELQTAKK [_IQQELQTAK(hydroxyisobutyryl)K_]
collision cross section [15]: 386.63 ± 0.81 Å²

DFSLTSSSQTPGATK [_DFS(HexNAc (ST))LTSSSQTPGATK_]
collision cross section (charge state: 2, modification: HexNAc (ST)): 426.98 ± 0.62 Å² | collision cross section [28]: 516.25 Å²

DYSAPVNFISAGLKK [_DYSAPVNFISAGLK(Formyl)K_]
collision cross section [24]: 433.25 ± 0.72 Å² | collision cross section (charge state: 3, modification: Formyl): 526.56 ± 0.68 Å²

KFGVLSDNFK [_K(Propionyl)FGVLSDNFK_]
collision cross section [17]: 374.07 ± 0.33 Å²

FRSGNYR [_FR(Methyl (R))SGNYR_]
collision cross section [1]: 333.09 ± 1 Å² | collision cross section [2]: 399.51 ± 0.82 Å²

VVPGYGHAVLR [_VVPGY(Phospho (Y))GHAVLR_]
collision cross section [19]: 386.55 ± 0.062 Å² | collision cross section [20]: 451.71 Å²

LGPNDQYK [_LGPNDQY(Phospho (Y))K_]
collision cross section [19]: 336.82 ± 0.067 Å²

PARGLYSR [_PAR(Citrullination (R))GLYSR_]
collision cross section [14]: 324.52 ± 2.2 Å²

IHVQSSSDSSDEPAEKR [_IHVQSSSDSSDEPAEK(Dimethyl (K))R_]
collision cross section [7]: 519.62 ± 3.4 Å²

VFSIISSEKELK [_VFSIISSEK(GlyGly (K))ELK_]
collision cross section [29]: 424.98 ± 0.97 Å² | collision cross section [11]: 493.89 ± 2 Å²

VPTTEKPTVTVNFR [_VPTTEK(Malonyl)PTVTVNFR_]
collision cross section [3]: 427.18 ± 3.1 Å² | collision cross section [25]: 511.14 ± 0.89 Å²

VGTASVLQPVKK [_VGTASVLQPVK(Butyryl)K_]
collision cross section [9]: 385.91 ± 0.85 Å²
